These results are taken from publication PMC4632003, “Mitofilin and CHCHD6 physically interact with Sam50 to sustain cristae structure” (Scientific Reports, 2015).

T1: GST-tagged Sam50 (Homo sapiens (Human), UniProt Q9Y512)
T1 chain: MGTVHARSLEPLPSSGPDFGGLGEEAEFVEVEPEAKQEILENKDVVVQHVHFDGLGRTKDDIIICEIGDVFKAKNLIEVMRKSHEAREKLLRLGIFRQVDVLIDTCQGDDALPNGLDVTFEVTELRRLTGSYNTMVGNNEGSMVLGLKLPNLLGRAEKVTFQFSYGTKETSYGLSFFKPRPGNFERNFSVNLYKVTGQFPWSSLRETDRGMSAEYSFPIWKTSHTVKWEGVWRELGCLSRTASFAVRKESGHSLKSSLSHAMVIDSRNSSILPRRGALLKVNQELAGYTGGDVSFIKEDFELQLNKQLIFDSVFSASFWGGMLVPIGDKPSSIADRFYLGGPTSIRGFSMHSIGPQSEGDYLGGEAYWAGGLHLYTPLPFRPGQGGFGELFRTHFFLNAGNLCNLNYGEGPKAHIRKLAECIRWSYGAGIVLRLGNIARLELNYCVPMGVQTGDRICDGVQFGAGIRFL

T2: His-tagged Mitofilin 123-758 (human, UniProt Q16891 123-758)
T2 construct: Mitofilin, human, residues 123-758, cloned into pET-28a; The methods of the pull-down name 'GST-Mitofilin' where results, legend and plasmids say His-tagged Mitofilin 123-758; its purification is not described; also called His-Mitofilin^123–758; source: E. coli
T2 sequence (looked up): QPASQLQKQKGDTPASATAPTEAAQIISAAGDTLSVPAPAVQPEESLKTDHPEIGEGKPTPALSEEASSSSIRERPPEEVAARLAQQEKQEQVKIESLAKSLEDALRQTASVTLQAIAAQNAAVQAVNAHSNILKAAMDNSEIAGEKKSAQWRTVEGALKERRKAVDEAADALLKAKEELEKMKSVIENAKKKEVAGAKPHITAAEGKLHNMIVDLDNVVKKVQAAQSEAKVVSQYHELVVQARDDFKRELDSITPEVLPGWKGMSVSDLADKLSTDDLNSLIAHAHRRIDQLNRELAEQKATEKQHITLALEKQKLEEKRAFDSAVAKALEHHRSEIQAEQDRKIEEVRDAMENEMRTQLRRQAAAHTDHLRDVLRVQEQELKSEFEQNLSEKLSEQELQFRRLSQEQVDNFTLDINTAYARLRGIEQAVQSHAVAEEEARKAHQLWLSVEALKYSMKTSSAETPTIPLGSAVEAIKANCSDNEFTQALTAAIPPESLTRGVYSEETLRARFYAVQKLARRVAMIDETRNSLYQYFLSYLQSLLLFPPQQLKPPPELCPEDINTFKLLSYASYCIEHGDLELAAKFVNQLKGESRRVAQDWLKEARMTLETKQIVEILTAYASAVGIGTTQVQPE

B1: His-tagged full-length CHCHD6 (natural protein, human, UniProt Q9BRQ6 1-235, looked up)
chain: MGSTESSEGRRVSFGVDEEERVRVLQGVRLSENVVNRMKEPSSPPPAPTSSTFGLQDGNLRAPHKESTLPRSGSSGGQQPSGMKEGVKRYEQEHAAIQDKLFQVAKREREAATKHSKASLPTGEGSISHEEQKSVRLARELESREAELRRRDTFYKEQLERIERKNAEMYKLSSEQFHEAASKMESTIKPRRVEPVCSGLQAQILHCYRDRPHEVLLCSDLVKAYQRCVSAAHKG
notes: CHCHD6, human, full length, cloned into pET-28a; also called His-CHCHD6; source: E. coli (BL21), purified (Nickel-NTA agarose)
B2: GST-tagged Sam50 (natural protein, human, UniProt Q9Y512 1-469, looked up)
chain: T1 chain
notes: Sam50, human, full-length cDNA cloned into pGEX-6P-1; also called GST-Sam50; source: E. coli (BL21), purified (glutathione agarose)
B3: His-tagged CHCHD6 NΔ15 variant (domain or fragment, human, UniProt Q9BRQ6 16-235, looked up)
chain: VDEEERVRVLQGVRLSENVVNRMKEPSSPPPAPTSSTFGLQDGNLRAPHKESTLPRSGSSGGQQPSGMKEGVKRYEQEHAAIQDKLFQVAKREREAATKHSKASLPTGEGSISHEEQKSVRLARELESREAELRRRDTFYKEQLERIERKNAEMYKLSSEQFHEAASKMESTIKPRRVEPVCSGLQAQILHCYRDRPHEVLLCSDLVKAYQRCVSAAHKG
notes: CHCHD6, human, deletion variant that lacks the N-terminal 15 amino acids; cloned into pET-28a; source: E. coli (BL21), purified (Nickel-NTA agarose); not shown: His tag, N-terminal, kept
B4: His-tagged CHCHD6 CΔ46 variant (protein)
chain: MGSTESSEGRRVSFGVDEEERVRVLQGVRLSENVVNRMKEPSSPPPAPTSSTFGLQDGNLRAPHKESTLPRSGSSGGQQPSGMKEGVKRYEQEHAAIQDKLFQVAKREREAATKHSKASLPTGEGSISHEEQKSVRLARELESREAELRRRDTFYKEQLERIERKNAEMYKLSSEQFHEAASKMESTIK

The target of experiment [1] is B2. The experiment can be described thus: pull-down; GST pull-down: 10 μg purified GST-tagged protein, 10 μg His-tagged protein and glutathione Sepharose 4B in 1 ml PBS with protease inhibitor, overnight at 4 °C, washed five times with cold PBS; Western blot. As to conditions: both partners purified.
Experiment [2] concerns the target T1, GST-tagged Sam50. Briefly: GST pull-down.
Experiment [3] addresses T2, His-tagged Mitofilin 123-758. Briefly: pull-down; GST pull-down: 10 μg purified GST-tagged protein, 10 μg His-tagged protein and glutathione Sepharose 4B in 1 ml PBS with protease inhibitor, overnight at 4 °C, washed five times with cold PBS; Western blot. Particulars: both partners purified.

B1: the binding result in the experiment with GST-tagged Sam50 [1] and in the experiment with GST-tagged Sam50 [2] was “binds” throughout.

Regarding B2, the binding result in experiment [3] was “binds”. Turning to B3, the binding result with GST-tagged Sam50 [1] and with GST-tagged Sam50 [2] was “binds” throughout. As for B4, the binding result in the experiment with GST-tagged Sam50 [2] is on record as “no binding”.
